Test results published in patent US20220002362A1.

Target: OptoSTIM1 (CRY2 E281A) (Arabidopsis thaliana) (UniProt Q13586)
Experiment: cell-based or functional assay

activation half-maximal time (R-GECO1 level upon light stimulation): 62 s | inactivation half time (R-GECO1 level after light removal): 7 min
Substance: OptoSTIM1 (CRY2 E281A) (from UniProt Q13586 238-668)
